Reference: doi:10.1101/2022.10.23.513379 (bioRxiv, 2022)

What was measured:
[1] = molecular target: T1, His-tagged wildtype SARS-CoV-2 RBD (BEI NR52309) (SARS-CoV-2, wildtype (Wuhan-Hu-1), UniProt P0DTC2); assay: crystal structure
[2] = molecular target: T1, His-tagged wildtype SARS-CoV-2 RBD (BEI …); assay: BLI

Row | Binder | binding result [1] | binding result [2]
1 | 80 Fab (Fab, V domains shown) VH: QVQLVQSGAEVKKPGSSVKVSCKASGGTFNRYAFSWVRQAPGQGLEWMGGIIPIFGTANYAQKFQGRVTITADESTSTAYMELSSLRSEDTAVYYCARSTRELPEVVDWYFDLWGRGTLVTVSS VL: not shown | binds | –
2 | 2-7 MB (mono-specific Multabody of specificity 2-7) (complex) VH: QITLKESGPTLVKPTQTLTLTCTFSGFSLSTSGVGVGWIRQPPGKALEWLALIYWDDDKRYSPSLKSRLTITKDTSKNQVVLTMTNMDPVDTATYYCAHHKIERIFDYWGQGTLVTVSS VL: SALAQPASVSGSPGQSITISCTGTSSDVGAYNYVSWYQQHPGKAPKLMIYDVSKRPSGVSNRFSGSKSGNTASLTISGLQAEDEADYYCSSYTTSSTVFGGGTKLTVL | – | binds
3 | 80 IgG (antibody, V domains shown) VH: QVQLVQSGAEVKKPGSSVKVSCKASGGTFNRYAFSWVRQAPGQGLEWMGGIIPIFGTANYAQKFQGRVTITADESTSTAYMELSSLRSEDTAVYYCARSTRELPEVVDWYFDLWGRGTLVTVSS VL: not shown | – | binds
4 | 80 MB (mono-specific Multabody of specificity 80) (complex) VH: QVQLVQSGAEVKKPGSSVKVSCKASGGTFNRYAFSWVRQAPGQGLEWMGGIIPIFGTANYAQKFQGRVTITADESTSTAYMELSSLRSEDTAVYYCARSTRELPEVVDWYFDLWGRGTLVTVSS VL: not shown | – | binds
5 | 2-7 IgG (antibody, V domains shown) VH: QITLKESGPTLVKPTQTLTLTCTFSGFSLSTSGVGVGWIRQPPGKALEWLALIYWDDDKRYSPSLKSRLTITKDTSKNQVVLTMTNMDPVDTATYYCAHHKIERIFDYWGQGTLVTVSS VL: SALAQPASVSGSPGQSITISCTGTSSDVGAYNYVSWYQQHPGKAPKLMIYDVSKRPSGVSNRFSGSKSGNTASLTISGLQAEDEADYYCSSYTTSSTVFGGGTKLTVL | – | binds
